Target: T1, CD4 on CD4 positive cells in human peripheral blood (human, UniProt P01730 26-458)
T1 construct: whole, on cells; also called CD4 molecules
Assay: cell adsorption from human whole blood on covalently immobilized binder (GMA grafted nonwoven fabric column); flow cytometry; mean ± SD of 3
Protocol: Immediately before the initiation of experiment, the PBS(−) solution was drained off by flowing air through the column. 5.0 ml of healthy human fresh blood containing ACD-A ([…] Laboratories) (blood:ACD-A=6.7:1) was fed from the inlet of the cell adsorber at a flow rate of 1.0 ml/min with a syringe pump. After discarding the first five drops, the treated blood was collected from the outlet of the column.
The CD4 positive cell removal rate at that time was calculated based on the change in the number of leukocytes measured by Coulter counter, and the change in the proportion of CD4 positive cells in the recovered cells measured by flow cytometry with use of a flow cytometer (FACS Calibur: Becton, Dickinson and Company). The cells were stained by the following manner. 100 μl of the collected blood was added with 10 μl of anti-CD4-PE solution (clone SK3, Becton, Dickinson and Company), 10 μl of anti-CD8-FITC solution (clone RPA-T8, Becton, Dickinson and Company), and 10 μl of anti-CD45-PerCP solution (Becton, Dickinson and Company). The resultant mixture was allowed to be stained at room temperature for 30 minutes, and then was added with 1 ml of FACS Lysing solution (Becton, Dickinson and Company) to effect hemolysis. CD45 positive cells were gated as leukocytes, and the proportion of CD4 positive cells therein was assayed.

B1: Leu3a scFv-Normal (scFv)
scFv: MADIVLTQSPASLAVSLGQRATISCKASQSVDYDGDSYMNWYQQKPGQPPKLLIYAASNLESGIPARFTGSGSGTDFTLNIHPVEEEDTATYYCQQSYEDPPTFAGGTNLEIKGGGGSGGGGSGGGGSMVHLQESEPELVKPGASVKMSCKASGYTFTDYVINWVKQRTGQGLEWIGETYTGSGSSYYNEKFKDKATLTVDKASNIAYMQLSSLTSEDSAVYFCARRGKGTGFAFWGQGTLVTVSAAAADYKDDDDKGSSEQKLISEEDLGSRSTHHHHHHGSTK
notes: Covalently immobilized on GMA grafted nonwoven fabric in the assay
CD4 positive cell removal rate (%): 29.6%

— patent US20100069815A1 (ASAHI KASEI, published 2010)
